The results in this text go back to US20240343799A1 (Innovent, published 2024).

Substitutions are numbered along the chain they refer to. Numbers in names are those of the source.

T1: CD79b on the surface of B-cell non-Hodgkin's lymphoma cells (human, UniProt P40259 29-229)
T1 construct: whole, on cells; Endogenous CD79b of the cell lines; on cells it stands in the B cell receptor complex with CD79a; also called CD79b on Ramos cells; CD79b on BJAB cells
T1 sequence (looked up): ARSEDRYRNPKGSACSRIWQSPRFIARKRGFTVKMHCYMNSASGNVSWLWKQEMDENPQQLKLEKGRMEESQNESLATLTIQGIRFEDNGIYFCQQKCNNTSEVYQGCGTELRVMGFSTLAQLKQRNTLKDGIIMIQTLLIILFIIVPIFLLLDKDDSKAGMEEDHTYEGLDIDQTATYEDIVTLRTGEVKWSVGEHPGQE

T2: monkey CD3E & CD3G-biotin (Sino biological) (cynomolgus monkey, UniProt Q95LI5 22-117; Q95LI7 23-113, limits assumed)
T2 construct: also called Cyno CD3E&G; monkey CD3E&G
T2 sequence (looked up) 1: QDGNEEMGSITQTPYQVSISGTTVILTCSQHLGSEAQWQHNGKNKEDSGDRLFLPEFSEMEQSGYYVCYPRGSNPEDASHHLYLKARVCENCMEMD
T2 sequence (looked up) 2: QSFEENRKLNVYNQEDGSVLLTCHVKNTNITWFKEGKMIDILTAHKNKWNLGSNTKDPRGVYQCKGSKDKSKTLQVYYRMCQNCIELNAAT

T3: human CD79b-his (Sino biological) (human, UniProt P40259 29-159)
T3 construct: Amine-coupled to the Biacore chip (about 50 RU); not shown: His tag
T3 sequence (looked up): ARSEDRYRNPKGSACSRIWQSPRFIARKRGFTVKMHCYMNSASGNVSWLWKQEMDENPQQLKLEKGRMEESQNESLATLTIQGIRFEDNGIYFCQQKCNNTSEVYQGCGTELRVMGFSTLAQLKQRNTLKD

B1: CD79b.A7v14b/38E4v1 (bispecific antibody, human IgG1, kappa, L234A L235A)
heavy 1: not shown
light 1: DIVMTQTPLSLPVTPGQPASISCKSSQSLLDSDGKTYLNWLLQKPGQSPQSLIYLVSKLDSGVPDRFSGSGSGTDFTLKISRVEAEDVGVYYCWQGTHFPQTFGQGTKVEIKRTVAAPSVFIFPPSDEQLKSGTASVVCLLNNFYPREAKVQWKVDNALQSGNSQESVTEQDSKDSTYSLSSTLTLSKADYEKHKVYACEVTHQGLSSPVTKSFNRGEC
heavy 2: not shown
light 2: not shown
notes: also called CD79b.A7v14b x 38E4v1
B2: 38D9B3.11/sp34.87 (bispecific antibody, human IgG1, kappa, lambda, L234A L235A)
heavy 1: not shown
light 1: EIVLTQSPATLSLSPGERATLSCKASQSVDHDVDSYMDWYQQKPGQAPRLLIYSASNLESGIPARFSGSGSGTDFTLTISSLEPEDFAVYYCQQINEYPYTFGGGTKVEIKRTVAAPSVFIFPPSDEQLKSGTASVVCLLNNFYPREAKVQWKVDNALQSGNSQESVTEQDSKDSTYSLSSTLTLSKADYEKHKVYACEVTHQGLSSPVTKSFNRGEC
heavy 2: not shown
light 2: QAVVTQEPSLTVSPGGTVTLTCRSSTGAVTTSNYANWVQQKPGQAPRGLIGGTNKRAPGVPARFSGSLLGDKAALTLLGAQPEDEAEYYCALWYSNLWVFGQGTKLTVLGQPKAAPSVTLFPPSSEELQANKATLVCLISDFYPGAVTVAWKADSSPVKAGVETTTPSKQSNNKYAASSYLSLTPEQWKSHRSYSCQVTHEGSTVEKTVAPTECS
notes: 1+1 anti-CD79b x CD3 bispecific, IgG1 Fc with knob-in-hole and L234A/L235A; also called 38D9B3.11 x HzSP34.87
B3: 11G10.9.p1/sp34.87 (bispecific antibody, human IgG1, kappa, lambda, L234A L235A)
heavy 1: not shown
light 1: B1 light 1 with P12S, D33E, Q101L, Q105G
heavy 2: not shown
light 2: B2 light 2
notes: also called 11G10.9.p1 x HzSP34.87
B4: 34F1.14/sp34.24 (bispecific antibody, human IgG1, kappa, lambda, L234A L235A)
heavy 1: not shown
light 1: DVVMTQSPLSLPVTLGQPASISCKSSLSLLDSEGKTYLNWFQQRPGQSPRPLISLVSKLDSGVPDRFSGSGSGTDFTLKISRVEAEDVGVYYCWQGTHFPLTFGGGTKVEIKRTVAAPSVFIFPPSDEQLKSGTASVVCLLNNFYPREAKVQWKVDNALQSGNSQESVTEQDSKDSTYSLSSTLTLSKADYEKHKVYACEVTHQGLSSPVTKSFNRGEC
heavy 2: not shown
light 2: B2 light 2
notes: also called 34F1.14 x HzSP34.24
B5: 38D9B3.11/sp34.24 (bispecific antibody, human IgG1, kappa, lambda, L234A L235A)
heavy 1: not shown
light 1: B2 light 1
heavy 2: not shown
light 2: B2 light 2
notes: also called 38D9B3.11 x HzSP34.24
B6: 11G10.9.p1/sp34.24 (bispecific antibody, human IgG1, kappa, lambda, L234A L235A)
heavy 1: not shown
light 1: B1 light 1 with P12S, D33E, Q101L, Q105G
heavy 2: not shown
light 2: B2 light 2
notes: also called 11G10.9.p1 x HzSP34.24
B7: 34F1.14/sp34.87 (bispecific antibody, human IgG1, kappa, lambda, L234A L235A)
heavy 1: not shown
light 1: B4 light 1
heavy 2: not shown
light 2: B2 light 2
notes: also called 34F1.14 x HzSP34.87

For the first experiment, the target named is T1, CD79b on the surface of B-cell …. Briefly: flow cytometry on BJAB cells, goat anti-human IgG PE. As for the experimental part:
(§1) The binding ability of the CD79b/CD3 bispecific antibodies for CD79b-positive B-cell non-Hodgkin's lymphoma cell lines was detected by flow cytometry.
(§2) BJAB (AddexBio, USA, Cat #C0003016) and WSU-DLCL2 (Nanjing Kebai Biotechnology Co., Ltd., Cat #CBP60273) were cultured and passaged according to the conventional procedures. Cells were counted after centrifugation and resuspension, adjusted to a density of 4×10⁶ cells/mL, poured into a loading tank, and seeded to a 96-well plate at 50 μL/well using a multichannel pipettor. 50 μL of the antibody sample diluted in gradient was added to the 50 μL of cells in each well, and the mixture was then incubated in an incubator at 5% CO₂ and 37° C. for 30 min. The mixture was centrifuged at 400 g for 5 min, then 200 μL of PBS was added, and the resulting mixture was centrifuged at 400 g for 5 min. This procedure was repeated 3 times. Goat anti-human IgG PE (1:200) was added, and the mixture was incubated for 30 min in the dark at room temperature. The mixture was washed with 200 μL of PBS twice, centrifuged, and then resuspended in 100 μL of PBS, and the values were read using a flow cytometer. The values were fitted to obtain a curve and EC₅₀ values were calculated.
On to B1, for which the “EC50 (read off the curve)” value is around 10 nM.
Regarding B2, the 50% effective concentration (EC50 (read off the curve)) is around 5 nM.
The same measure, in the same setting: next, B3: around 20 nM.
Turning to B4, the “EC50 (read off the curve)” value is around 60 nM.
With B5, the concentration giving a half-maximal response (EC50 (read off the curve)) is around 5 nM.
Regarding B6, the “EC50 (read off the curve)” value was around 20 nM.

The next experiment shares this target. Briefly: flow cytometry on WSU-DLCL2 cells, goat anti-human IgG PE. As to the method:
as §1, §2
B1: the half-maximal effective concentration (EC50 (read off the curve)) was around 20 nM.
In the case of B2, the “EC50 (read off the curve)” value is around 9 nM.
Same read-out and setting: under B3 stands around 30 nM; under B5, around 10 nM; under B6, around 30 nM.

The target of a further experiment is T2, monkey CD3E & CD3G-biotin (Sino …). Description: SPR (Biacore T200), biotinylated monkey CD3E&CD3G on streptavidin chip, antibody injected. As to the method:
(§3) The binding kinetics of exemplary anti-CD79b/CD3 antibodies of the present invention for human CD79b, human CD3, and cynomolgus monkey CD3 were determined using surface plasmon resonance (Biacore T200). (1) Affinity assay of antibodies for human CD79b-his (Sino biological): 50 mM N-hydroxysuccinimide (NHS) and 200 mM 1-ethyl-3-(3-dimethylaminopropyl) carbodiimide hydrochloride (EDC) were freshly mixed and activated for 420 s at a flow rate of 10 μL/min. Human CD79b-His antigen was then diluted in 10 mM Acetate (pH 5.0), and after dilution to a concentration of 1 μg/mL, the antigen solution was subjected to coupling and the value was approximately 50 RU. Then 1 M ethanolamine was injected at a flow rate of 10 μL/min for 420 s to block the remaining activation sites. The buffer used in the experiment was HBS-EP+ solution at pH 7.4, and under a high performance mode, the antibodies obtained after 2-fold gradient dilution (0-80 nM) were each injected, according to an ascending order based on concentrations, into the channels 1, 2, 3 and 4 of the chip at a flow rate of 30 μL/min, wherein one cycle was used for determination of one concentration, the binding time was 180 s, and the dissociation time was 600 s. (2) Affinity assay of antibodies for human CD3E & CD3G-biotin (Sino biological) and monkey CD3E & CD3G-biotin (Sino biological): 50 mM NHS and 200 mM EDC were freshly mixed and activated for 420 s at a flow rate of 10 μL/min. Streptavidin (Thermo Fisher scientific) protein was then diluted in 10 mM Acetate (pH 4.5) and after dilution to a concentration of 10 μg/mL, the antigen solution was subjected to coupling and the value was approximately 3000 RU. Then 1 M ethanolamine was injected at a flow rate of 10 μL/min for 420 s to block the remaining activation sites. Human CD3E & CD3G-biotin and monkey CD3E & CD3G-biotin proteins were each immobilized on the chip channels coupled with Streptavidin protein. The antibodies (0-16 nM or 0-40 nM or 0-200 nM) obtained after 2-fold gradient dilution were each injected, according to an ascending order based on concentrations, into the channels 1, 2, 3 and 4 of the chip at a flow rate of 30 μL/min, wherein one cycle was used for determination of one concentration, the binding time was 180 s, and the dissociation time was 300 s.
In turn, B1 gave an equilibrium dissociation constant (Kd) of 1.52 nM, a koff of 0.00285 s⁻¹ and a kon of 1.88e+06 M⁻¹ s⁻¹.
As to B2, binding was put at a Kd of 253 nM, the koff was 0.0275 s⁻¹ and the kon was 109000 M⁻¹ s⁻¹.
For B3, in that order: 202 nM, 0.0336 s⁻¹ and 167000 M⁻¹ s⁻¹.
The corresponding values for B7 are 180 nM, 0.032 s⁻¹ and 178000 M⁻¹ s⁻¹.
B4: the Kd was found to be 8.75 nM, the koff came out at 0.00593 s⁻¹ and the kon turned out to be 678000 M⁻¹ s⁻¹.
B5 displayed a Kd of 10.9 nM, an off-rate (koff) of 0.00656 s⁻¹ and a kon of 603000 M⁻¹ s⁻¹.
B6 returned an equilibrium dissociation constant (Kd) of 10.7 nM, a koff of 0.0061 s⁻¹ and a kon of 570000 M⁻¹ s⁻¹.

The target of the next experiment is T3, human CD79b-his (Sino biological). Briefly: SPR (Biacore T200), CD79b-His coupled to chip, antibody injected. As to the method:
as §3
As for B1, the dissociation constant (Kd) amounted to 8.66 nM, the koff stood at 0.00701 s⁻¹ and the kon worked out at 809000 M⁻¹ s⁻¹.
In the case of B2, the affinity, expressed as Kd, was 1.66 nM; the koff was determined as 0.00031 s⁻¹; the association rate constant (kon) was found to be 187000 M⁻¹ s⁻¹.
B3 had a Kd of 4.5 nM, an off-rate constant (koff) of 0.00208 s⁻¹ and an association rate constant (kon) of 461000 M⁻¹ s⁻¹.
B7: the dissociation constant (Kd) came to 7.03 nM, the koff turned out to be 0.00207 s⁻¹ and the association rate constant (kon) stood at 295000 M⁻¹ s⁻¹.
The corresponding values for B4 are 3.1 nM, 0.00161 s⁻¹ and 519000 M⁻¹ s⁻¹.
B5 displayed a Kd of 0.787 nM, a dissociation rate constant (koff) of 0.000268 s⁻¹ and a kon of 341000 M⁻¹ s⁻¹.
For B6, in that order: 2.16 nM, 0.00176 s⁻¹ and 815000 M⁻¹ s⁻¹.

In another experiment the target is T4, human CD3E & CD3G-biotin (Sino biological) (human, UniProt P07766 23-126; P09693 23-116, limits assumed).
T4 construct: also called Human CD3E&G
T4 sequence (P07766 23-126 limits assumed, chain 1 of 2): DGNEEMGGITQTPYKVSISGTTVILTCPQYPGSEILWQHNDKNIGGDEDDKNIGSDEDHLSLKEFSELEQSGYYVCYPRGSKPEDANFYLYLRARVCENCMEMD
T4 sequence (P09693 23-116 limits assumed, chain 2 of 2): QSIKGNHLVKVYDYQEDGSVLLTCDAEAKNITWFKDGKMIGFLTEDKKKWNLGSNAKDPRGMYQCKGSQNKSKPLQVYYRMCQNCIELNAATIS
Briefly: SPR (Biacore T200), biotinylated CD3E&CD3G on streptavidin chip, antibody injected. As to the method: as §3
Take B1: the dissociation constant Kd stood at 1 nM, the koff amounted to 0.00296 s⁻¹ and the association rate constant (kon) came to 2.96e+06 M⁻¹ s⁻¹.
Molecule B2 had a dissociation constant Kd of 119 nM, a koff of 0.0368 s⁻¹ and a kon of 310000 M⁻¹ s⁻¹.
B3 registered a Kd of 107 nM, an off-rate (koff) of 0.0331 s⁻¹ and a kon of 308000 M⁻¹ s⁻¹.
Regarding B7, the dissociation constant Kd amounted to 92 nM, the dissociation rate constant (koff) was 0.0315 s⁻¹ and the kon turned out to be 342000 M⁻¹ s⁻¹.
Molecule B4 returned a dissociation constant Kd of 4.99 nM, a koff of 0.00512 s⁻¹ and an association rate constant (kon) of 1.03e+06 M⁻¹ s⁻¹.
B5: the Kd was 6.19 nM, the off-rate constant (koff) turned out to be 0.00565 s⁻¹ and the on-rate constant (kon) was determined as 912000 M⁻¹ s⁻¹.
The molecule B6 returned a Kd of 6.25 nM, an off-rate (koff) of 0.00531 s⁻¹ and an on-rate (kon) of 851000 M⁻¹ s⁻¹.
